Assay results from patent US20250186597A1, “TARGETED IMMUNE ACTIVATION WITH IL-18 IMMUNOCYTOKINES” (BRIGHT PEAK THERAPEUTICS AG, priority 2023, published 2025).

Key:
human IL-18BP = biological target: T1, human IL-18BP (Homo sapiens, UniProt O95998); test: IL-18BP binding alphaLISA assay (Example 4, used in Example 22B); conditions: IL-18BP AlphaLISA
T1 construct: His
T1 sequence (O95998 31-194): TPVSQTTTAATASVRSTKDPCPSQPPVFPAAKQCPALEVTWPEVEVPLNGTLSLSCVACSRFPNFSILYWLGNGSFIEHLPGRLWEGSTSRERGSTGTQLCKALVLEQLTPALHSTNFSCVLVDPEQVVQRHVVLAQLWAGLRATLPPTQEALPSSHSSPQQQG
Description: A human IL-18BP AlphaLISA Assay Kit is used to determine the binding affinity of each immunocytokine and IL-18 variant for IL-18BP, which detected the presence of free form IL-18BP.
Sixteen three-fold serial dilutions of IL-18 analytes are prepared in aMEM medium supplemented with 20% FCS, Glutamax, and 25 µM β-mercaptoethanol in the presence of 5 ng/mL of His-tagged human IL-18BP. Final IL-18 analytes concentration range from 2778 nM to […].
After 1 hr incubation at room temperature, free IL-18BP levels are measured using a […]. In a 384 well OPTIplate, 5 μL of 5× Anti-IL-18BP acceptor beads are added to 7.5 μL of an IL-18/IL-18BP mix. After 30 min incubation at room temperature with shaking, 5 μL of biotinylated Anti-IL-18BP antibodies are added to each well. The plate is incubated further for 1 hr at room temperature. Under subdued light, 12.5 μL of 2× streptavidin (SA) donor beads are pipetted into each well, and the wells are incubated with shaking for an additional 30 min at room temperature. The AlphaLisa signal is then measured on an Enspire plate reader with 680 and 615 nm as excitation and emission wavelengths, respectively. The dissociation constant (KD) is calculated based on a variable slope, four parameter analysis using GraphPad PRISM software.
An IL-18 binding protein AiphaLISA experiment substantially as described in Example 4 was performed on IL-18 polypeptide which can be incorporated into immunocytokine compositions as provided herein to assess ability to bind to IL-181BP. It is expected that the IL-18 polypeptides provided below would behave analogously to C086 (SEQ ID NO: 30) when incorporated into an immunocytokine composition as those otherwise provided herein.

NK-92 cells = test: IFNγ induction cellular assay in NK-92 cells (Example 4, used in Example 22C); type: cell-based, human; conditions: IFNg stimulation in NK92 cells
Description: The ability of immunocytokines and IL-18 polypeptides provided herein are assessed for ability to induce IFN[…] in a cellular assay according to the protocol below.
The NK cell line NK-92 derived from a patient with lymphoma (ATCC® CRL-2407™) is cultured in aMEM medium supplemented with 20% FCS, Glutamax, 25 µM B-mercaptoethanol, and 100 IU/mL of recombinant human IL-2.
On the day of experiment, cells are harvested and washed with aMEM medium without IL-2 and containing 1 ng/mL of recombinant human IL-12. After counting, cells are seeded at 100,000 cells/well in a 384 well titer plate and incubated at 37° C./5% CO2. Sixteen 4-fold serial dilutions of IL-18 analytes are prepared in aMEM medium, and 1 ng/mL of IL-12 were added to the NK-92 cells. Final IL-18 analyte concentrations range from 56 nM to 5×10^−5 pM.
After incubating the cells for 16-20 hr at 37° C./5% CO2, 5 μL of supernatant is carefully transferred to a 384 microwell OptiPlate. IFNγ levels are measured using a human IFNγ AlphaLISA Assay Kit. Briefly, 10 μL of 2.5× AlphaLISA Anti-IFNγ acceptor beads and biotinylated antibody anti-IFNγ mix are added to the 5 μL of NK-92 supernatants. The mixtures are incubated for 1 hr at room temperature with shaking. Under subdued light, 2.5 μL of 2× streptavidin (SA) donor beads are pipetted into each well, and the wells are incubated for 30 min at room temperature with shaking. AlphaLISA signals are then measured on an EnSpire™ plate reader using 680 nm and 615 nm as excitation and emission wavelengths, respectively. Half maximal effective concentrations (EC50) are calculated based on a variable slope and four parameter analysis using GraphPad PRISM software.
The experiments described in Example 4 for determination of IFNg stimulation in NK92 cells (and inhibition by IL-18 BP) were performed substantially as described on IL-18 polypeptides in order to assess their activities and their suitability for incorporation into immunocytokine compositions. It is expected that the IL-18 polypeptides provided below would behave analagously to C086 (SEQ ID NO: 30) when incorporated into an immunocytokine composition as those otherwise provided herein.

Row | Molecule | Kd (human IL-18BP) [nM] | EC50 (NK-92 cells) [nM]
1 | SEQ ID NO: 71: IL-18 polypeptide: N-terminal G, E6K, V11I, C38A, K53A, T63A, C76A, C127A (protein, N-terminal G, IL-18 polypeptide: N-terminal G, E6K, V11I, C38A, K53A, T63A, C76A, C127A) GYFGKLKSKLSIIRNLNDQVLFIDQGNRPLFEDMTDSDARDNAPRTIFIISMYADSQPRGMAVAISVKCEKISTLSAENKIISFKEMNPPDNIKDTKSDIIFFQRSVPGHDNKMQFESSSYEGYFLAAEKERDLFKLILKKEDELGDRSIMFTVQNED | > 2800 | 
2 | SEQ ID NO: 70: IL-18 polypeptide: N-terminal G, E6K, V11I, C38A, M51G, K53A, T63A, C76A, C127A (protein, N-terminal G, IL-18 polypeptide: N-terminal G, E6K, V11I, C38A, M51G, K53A, T63A, C76A, C127A) GYFGKLKSKLSIIRNLNDQVLFIDQGNRPLFEDMTDSDARDNAPRTIFIISGYADSQPRGMAVAISVKCEKISTLSAENKIISFKEMNPPDNIKDTKSDIIFFQRSVPGHDNKMQFESSSYEGYFLAAEKERDLFKLILKKEDELGDRSIMFTVQNED | > 2800 | 
3 | SEQ ID NO: 72: IL-18 polypeptide: N-terminal 4xG, E6K, V11I, C38A, K53A, T63A, C76A, C127A (protein, N-terminal 4xG, IL-18 polypeptide: N-terminal 4xG, E6K, V11I, C38A, K53A, T63A, C76A, C127A) GGGGYFGKLKSKLSIIRNLNDQVLFIDQGNRPLFEDMTDSDARDNAPRTIFIISMYADSQPRGMAVAISVKCEKISTLSAENKIISFKEMNPPDNIKDTKSDIIFFQRSVPGHDNKMQFESSSYEGYFLAAEKERDLFKLILKKEDELGDRSIMFTVQNED | > 2800 | 
4 | 44 (protein) YAGKLKSKLSVIRNLNDQVLFIDQGNRPLFEDMTDSDCRDNAPRTIFIISMYADAQPRGMAVTISVKCEKISTLSCENKIISFKEMNPPDNIKDTKSDIIFFQRSVPGHDNKMQFESSSYEGYFLACEKERDLFKLILKKEDELGDRSIMFTVQNED | > 1000 | > 1000
5 | 45 (protein) YFGKLKSKLSVIRNLNDQVLFIDQGNRPLFEDMTDSDCRDNAPRTIFIISMYAAAQPRGMAVTISVKCEKISTLSCENKIISFKEMNPPDNIKDTKSDIIFFQRSVPGHDNKMQFESSSYEGYFLACEKERDLFKLILKKEDELGDRSIMFTVQNED | > 1000 | 30
6 | C174: IL-18 polypeptide: K8L, E6K, V11I, C38A, K53A, T63A, C76A, C127A (protein) YFGKLKSLLSIIRNLNDQVLFIDQGNRPLFEDMTDSDARDNAPRTIFIISMYADSQPRGMAVAISVKCEKISTLSAENKIISFKEMNPPDNIKDTKSDIIFFQRSVPGHDNKMQFESSSYEGYFLAAEKERDLFKLILKKEDELGDRSIMFTVQNED | 0.14 | 
7 | C177: IL-18 polypeptide: E6K, V11I, C38A, I49R, K53A, T63A, C76A, C127A (protein) YFGKLKSKLSIIRNLNDQVLFIDQGNRPLFEDMTDSDARDNAPRTIFIRSMYADSQPRGMAVAISVKCEKISTLSAENKIISFKEMNPPDNIKDTKSDIIFFQRSVPGHDNKMQFESSSYEGYFLAAEKERDLFKLILKKEDELGDRSIMFTVQNED | > 2800 | 
8 | C182: IL-18 polypeptide: E6K, V11I, C38A, K53A, T63A, C76A, C127A, V153Y (protein) YFGKLKSKLSIIRNLNDQVLFIDQGNRPLFEDMTDSDARDNAPRTIFIISMYADSQPRGMAVAISVKCEKISTLSAENKIISFKEMNPPDNIKDTKSDIIFFQRSVPGHDNKMQFESSSYEGYFLAAEKERDLFKLILKKEDELGDRSIMFTYQNED | > 2800 | 
9 | C142: IL-18 polypeptide: Y1M, E6K, V11I, C38A, K53A, T63A, C76A, C127A (protein) MFGKLKSKLSIIRNLNDQVLFIDQGNRPLFEDMTDSDARDNAPRTIFIISMYADSQPRGMAVAISVKCEKISTLSAENKIISFKEMNPPDNIKDTKSDIIFFQRSVPGHDNKMQFESSSYEGYFLAAEKERDLFKLILKKEDELGDRSIMFTVQNED | 2.25 | 
10 | C181: IL-18 polypeptide: E6K, V11I, C38A, K53A, T63A, C76A, C127A, V153E (protein) YFGKLKSKLSIIRNLNDQVLFIDQGNRPLFEDMTDSDARDNAPRTIFIISMYADSQPRGMAVAISVKCEKISTLSAENKIISFKEMNPPDNIKDTKSDIIFFQRSVPGHDNKMQFESSSYEGYFLAAEKERDLFKLILKKEDELGDRSIMFTEQNED | > 2800 | 
11 | C176: IL-18 polypeptide: E6K, V11I, C38A, I49M, K53A, T63A, C76A, C127A (protein) YFGKLKSKLSIIRNLNDQVLFIDQGNRPLFEDMTDSDARDNAPRTIFIMSMYADSQPRGMAVAISVKCEKISTLSAENKIISFKEMNPPDNIKDTKSDIIFFQRSVPGHDNKMQFESSSYEGYFLAAEKERDLFKLILKKEDELGDRSIMFTVQNED | 25.8 | 
12 | C184: IL-18 polypeptide: E6R, V11I, C38A, K53A, T63A, C76A, C127A (protein) YFGKLRSKLSIIRNLNDQVLFIDQGNRPLFEDMTDSDARDNAPRTIFIISMYADSQPRGMAVAISVKCEKISTLSAENKIISFKEMNPPDNIKDTKSDIIFFQRSVPGHDNKMQFESSSYEGYFLAAEKERDLFKLILKKEDELGDRSIMFTVQNED | 5.46 | 
13 | SEQ ID NO: 69: IL-18 polypeptide: E6K, V11I, C38A, M51G, K53A, T63A, C76A, C127A (protein) YFGKLKSKLSIIRNLNDQVLFIDQGNRPLFEDMTDSDARDNAPRTIFIISGYADSQPRGMAVAISVKCEKISTLSAENKIISFKEMNPPDNIKDTKSDIIFFQRSVPGHDNKMQFESSSYEGYFLAAEKERDLFKLILKKEDELGDRSIMFTVQNED | > 2800 | 
14 | 56 (protein) YFGKLKSKLSVIRNLNDQVLFIDQGNRPLFEDMTDSDSRDNAPRTIFIISMYADSQPRGMAVTISVKCEKISTLSSENKIISFKEMNPPDNIKDTKSDIIFFQRSVPGHDNKMQFESSSYEGYFLASEKERDLFKLILKKEDELGDRSIMFTVQNED | 436 | 
15 | C178: IL-18 polypeptide: E6K, V11I, C38A, K53A, T63A, C76A, Q103R, C127A (protein) YFGKLKSKLSIIRNLNDQVLFIDQGNRPLFEDMTDSDARDNAPRTIFIISMYADSQPRGMAVAISVKCEKISTLSAENKIISFKEMNPPDNIKDTKSDIIFFRRSVPGHDNKMQFESSSYEGYFLAAEKERDLFKLILKKEDELGDRSIMFTVQNED | > 2800 | 
16 | C179: IL-18 polypeptide: E6K, K8E, V11I, C38A, K53A, T63A, C76A, Q103R, C127A (protein) YFGKLKSELSIIRNLNDQVLFIDQGNRPLFEDMTDSDARDNAPRTIFIISMYADSQPRGMAVAISVKCEKISTLSAENKIISFKEMNPPDNIKDTKSDIIFFRRSVPGHDNKMQFESSSYEGYFLAAEKERDLFKLILKKEDELGDRSIMFTVQNED | > 2800 | 
